No end group written: not given here.
Legend:
GC-C in T84 cells = target: T1, GC-C in T84 cells (Homo sapiens, UniProt P25092); test: Cyclic GMP accumulation in T84 cells; assay type: cell-based; details: for bioactivity of purified urine peaks in T84 cell cyclic GMP bioassay: peptides purified from human urine, microbore HPLC C8
T1 construct: host or cells: T84 human colon carcinoma cells
Protocol: (§1) FIG. 3(a) and (b). FIG. 3(a) Concentration-response effect of synthetic human uroguanylin, human guanylin and E. coli ST5-18 (STa) on cyclic GMP levels in T84 cells. The cells were incubated with various concentrations of ligands for 30 min. Values represent mean±SE (n=4). FIG. 3(b) Displacement of ^125 I-STa specific binding from T84 cells by human uroguanylin, human guanylin and STa. Cells were incubated for 30 min at 37° C. with labeled STa and indicated concentrations of ligands. Specific binding (%) was determined by dividing the specifically bound ^125 I-STa at each ligand concentration by the specifically bound ^125 I-STa in the absence of ligands. Each determination represents the mean of four wells examined.
Cell Culture. A cultured human colon carcinoma cell line (T84) was obtained from the American Type Culture Collection (Rockville, Maryland) (ATCC No. CCL 248) at passage 52. Cells were grown to confluency in 24-well culture plates with a 1:1 mixture of Ham's F12 medium and Dulbecco's modified Eagle's medium (DMEM), supplemented with 10% fetal calf serum, 100 IU/ml penicillin, and 100 μg/ml streptomycin. Cells were used at passages 54-60.
Cyclic GMP determination. Monolayers of T84 cells in 24-well plates were washed twice with 1 ml/well DMEM, then incubated at 37° C. for 10 min with 0.5 ml DMEM containing 1 mM isobutylmethylxanthine, a phosphodiesterase inhibitor. Agents and fractions were then added for the indicated time as described in the results section, below. The media was then aspirated and the reaction terminated by the addition of ice cold 0.5 ml of 0.1N HC1. Aliquots were then evaporated to dryness under nitrogen and then resuspended in 5 mM sodium acetate buffer, pH 6.4. The samples were then measured for cyclic GMP by conventional RIA as described by Steiner et al. (13).

rat proximal colon = test: Short-circuit current (Isc) in rat proximal colon, Ussing chamber; details: 0.2 μM, mucosal addition
Protocol: FIG. 4. Effect of synthetic human uroguanylin on short-circuit current (Isc) of rat colon. Effect of human uroguanylin (0.2 μM) on Isc across rat proximal colon after a mucosal addition. The response is characteristic of results from 3 other experiments.
Measurement of Short-Circuit Current (ISc) in Rat Colon. Rat proximal colon tissue, consisting of only mucosa and submucosa, was mounted between two Ussing half-chambers and bathed on both sides similar to previously reported (3). Electrical measurements were monitored with an automatic voltage clamp, and direct connecting voltage-and current-passing electrodes were used to measure trans epithelial potential difference and Isc. Tissues were equilibrated under short-circuit conditions until Isc had stabilized.

receptors on T84 cells = target: T2, receptors on T84 cells (Homo sapiens, UniProt P25092); test: 125I-ST radioligand competitive binding assay on T84 cells; details: 30 min at 37° C., pH 5.5
T2 construct: host or cells: T84 human colon carcinoma cells
T2 sequence (P25092 24-1073): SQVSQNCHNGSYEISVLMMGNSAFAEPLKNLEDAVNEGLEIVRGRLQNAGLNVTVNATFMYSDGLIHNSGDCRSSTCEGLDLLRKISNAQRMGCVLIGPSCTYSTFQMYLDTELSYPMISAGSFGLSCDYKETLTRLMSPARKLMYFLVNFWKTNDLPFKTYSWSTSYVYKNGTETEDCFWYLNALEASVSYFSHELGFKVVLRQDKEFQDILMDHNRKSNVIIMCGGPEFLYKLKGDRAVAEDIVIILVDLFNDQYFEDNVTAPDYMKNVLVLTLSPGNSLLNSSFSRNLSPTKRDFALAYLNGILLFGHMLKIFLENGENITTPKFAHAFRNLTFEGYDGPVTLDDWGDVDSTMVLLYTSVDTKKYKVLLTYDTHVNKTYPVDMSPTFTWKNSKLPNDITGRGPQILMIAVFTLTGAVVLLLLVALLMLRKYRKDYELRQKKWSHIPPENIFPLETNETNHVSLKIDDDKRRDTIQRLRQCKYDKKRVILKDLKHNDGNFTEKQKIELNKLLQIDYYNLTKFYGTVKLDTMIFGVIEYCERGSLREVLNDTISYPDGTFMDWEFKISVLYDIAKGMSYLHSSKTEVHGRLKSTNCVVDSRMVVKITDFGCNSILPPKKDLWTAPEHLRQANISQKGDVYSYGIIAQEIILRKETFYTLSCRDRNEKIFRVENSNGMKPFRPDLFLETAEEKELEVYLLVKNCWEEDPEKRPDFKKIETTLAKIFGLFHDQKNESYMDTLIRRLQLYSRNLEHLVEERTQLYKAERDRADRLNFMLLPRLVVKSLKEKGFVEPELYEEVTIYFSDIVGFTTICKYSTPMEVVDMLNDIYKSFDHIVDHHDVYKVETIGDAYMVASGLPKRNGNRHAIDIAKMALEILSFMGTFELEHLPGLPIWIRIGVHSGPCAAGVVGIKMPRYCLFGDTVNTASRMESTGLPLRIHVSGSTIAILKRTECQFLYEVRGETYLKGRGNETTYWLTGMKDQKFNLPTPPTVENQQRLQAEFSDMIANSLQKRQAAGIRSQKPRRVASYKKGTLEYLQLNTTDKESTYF
Protocol: as §1
Radioligand Binding Assay. ^125 I-labeled ST5-18 (^125 I-ST) was prepared by the Iodo-Gen method as previously described (3). T84 cell monolayers were washed two times with 1.0 ml per well of ice-cold binding assay buffer (Earle's medium containing 25 mM 2[N-Morpholino]ethanesulfonic acid (MES), pH 5.5). The cells were incubated for 30 min at 37° C. in 0.5 ml per well of binding assay buffer with ^125 I-ST (100,000 cpm per well) and unlabeled peptides. […] This volume was transferred to tubes and assayed for radioactivity by a multigamma counter. Results are expressed as the percentage specifically bound.

T1 sequence (P25092 24-1073): as above

Substance | bioactivity of purified urine peaks in T84 cell cyclic GMP bioassay (GC-C in T84 cells) | effect on short-circuit current (Isc) of rat proximal colon (rat proximal colon) | effect on T84 cell cyclic GMP levels (GC-C in T84 cells; T84 cells, 30 min incubation with ligand, 1 mM isobutylmethylxanthine) | relative potency for activation of GC-C in T84 cells (GC-C in T84 cells; T84 cells, cyclic GMP, concentration-response) | relative affinity, displacement of 125I-ST5-18 specific binding from T84 cells (receptors on T84 cells)
DDCELCVNVACTGCL [peak 2, peptide from human urine lacking the N-terminal asparagine, likely a degradation product of peak 1] | bioactive |  |  |  | 
NDDCELCVNVACTGCL [human uroguanylin, sedecapeptide, endogenous regulator of intestinal guanylate cyclase, isolated from human urine and chemically synthesized] | bioactive | sustained rise in Isc | concentration-dependent increase | more potent than human guanylin, but less potent than ST | 
human guanylin: first known endogenous activator of intestinal guanylate cyclase (PGTCEICAYAACTGC; ends and bridges not checked; cysteine pairing not given here; UniProt Q02747 101-115, looked up) |  |  |  |  | much lower affinity
